The values that follow come from patent US20140039042, “BISPECIFIC APTAMERS MEDIATING TUMOUR CELL LYSIS” (MERCK PATENT GMBH, published 2014).

The target in one data set is CD16β (FcγRIIIb) (UniProt O75015 O75015:17-200). Description: filter; dot blot. The settings on record: tags: 10His.
The target in data set [1] is T1, CD16α (FcγRIIIa) V158 allotype, CD16α-6His (UniProt P08637 P08637:17-208). Description: filter; 38±26 nM, n=4, dot blot; broad unspecific cell binding in FACS. As to conditions: tags: 6His.
The target of data set [2] is T2, c-Met Fc fusion (UniProt P08581 P08581:25-932). Briefly: filter; picomolar Kd, number only in figure. As to conditions: tags: Fc-His fusion; chain copies: 2.
For data set [3], the target named is T2, c-Met Fc fusion. Description: filter; dot blot; picomolar. The settings on record: tags: Fc-His fusion; chain copies: 2.
The target in data set [4] is T1, CD16α (FcγRIIIa) V158 allotype, …. Briefly: filter; dot blot; allotype not specified for this assay. As to conditions: tags: 6His.
Data set [5] shares this target. Briefly: filter; dot blot. The settings on record: tags: 6His.
In data set [6] the target is T2, c-Met Fc fusion. Briefly: filter; picomolar Kd, number only in figure; EMSA also shows binding. As to conditions: tags: Fc-His fusion; chain copies: 2.
The target in data set [7] is T2, c-Met Fc fusion. Briefly: filter; dot blot. As to conditions: tags: Fc-His fusion; chain copies: 2.
Data set [8] concerns the target T2, c-Met Fc fusion. Briefly: filter; c-Met aptamer at 3' end performed best; dot blot. As to conditions: tags: Fc-His fusion; chain copies: 2.
The target in data set [9] is T1, CD16α (FcγRIIIa) V158 allotype, …. Briefly: filter; 45±28 nM, n=10, dot blot. As to conditions: tags: 6His.
Data set [10] addresses T2, c-Met Fc fusion. Briefly: filter; complete loss of binding, dot blot. The settings on record: tags: Fc-His fusion; chain copies: 2.
Data set [11] concerns the target T2, c-Met Fc fusion. Briefly: filter; 11±6 nM, n=6, dot blot; FIG. 2 legend gives 57 nM; heading cites SEQ ID NO 54 but CLN0004 is SEQ 53. As to conditions: tags: Fc-His fusion; chain copies: 2.
For data set [12], the target named is T2, c-Met Fc fusion. Description: filter; 91±40 pM, n=3, dot blot; heading cites SEQ ID NO 53 but CLN0003 is SEQ 52. The settings on record: tags: Fc-His fusion; chain copies: 2.
In data set [13] the target is T2, c-Met Fc fusion. Briefly: filter; nearly similar affinity as full length. As to conditions: tags: Fc-His fusion; chain copies: 2.

T1 sequence (P08637 17-208, one chain of several): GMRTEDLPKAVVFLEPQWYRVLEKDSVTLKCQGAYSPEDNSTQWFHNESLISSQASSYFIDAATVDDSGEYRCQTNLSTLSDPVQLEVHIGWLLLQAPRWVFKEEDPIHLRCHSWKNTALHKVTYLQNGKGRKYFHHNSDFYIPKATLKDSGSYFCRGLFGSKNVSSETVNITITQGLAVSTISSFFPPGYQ
T2 sequence (P08581 25-932, one chain of several): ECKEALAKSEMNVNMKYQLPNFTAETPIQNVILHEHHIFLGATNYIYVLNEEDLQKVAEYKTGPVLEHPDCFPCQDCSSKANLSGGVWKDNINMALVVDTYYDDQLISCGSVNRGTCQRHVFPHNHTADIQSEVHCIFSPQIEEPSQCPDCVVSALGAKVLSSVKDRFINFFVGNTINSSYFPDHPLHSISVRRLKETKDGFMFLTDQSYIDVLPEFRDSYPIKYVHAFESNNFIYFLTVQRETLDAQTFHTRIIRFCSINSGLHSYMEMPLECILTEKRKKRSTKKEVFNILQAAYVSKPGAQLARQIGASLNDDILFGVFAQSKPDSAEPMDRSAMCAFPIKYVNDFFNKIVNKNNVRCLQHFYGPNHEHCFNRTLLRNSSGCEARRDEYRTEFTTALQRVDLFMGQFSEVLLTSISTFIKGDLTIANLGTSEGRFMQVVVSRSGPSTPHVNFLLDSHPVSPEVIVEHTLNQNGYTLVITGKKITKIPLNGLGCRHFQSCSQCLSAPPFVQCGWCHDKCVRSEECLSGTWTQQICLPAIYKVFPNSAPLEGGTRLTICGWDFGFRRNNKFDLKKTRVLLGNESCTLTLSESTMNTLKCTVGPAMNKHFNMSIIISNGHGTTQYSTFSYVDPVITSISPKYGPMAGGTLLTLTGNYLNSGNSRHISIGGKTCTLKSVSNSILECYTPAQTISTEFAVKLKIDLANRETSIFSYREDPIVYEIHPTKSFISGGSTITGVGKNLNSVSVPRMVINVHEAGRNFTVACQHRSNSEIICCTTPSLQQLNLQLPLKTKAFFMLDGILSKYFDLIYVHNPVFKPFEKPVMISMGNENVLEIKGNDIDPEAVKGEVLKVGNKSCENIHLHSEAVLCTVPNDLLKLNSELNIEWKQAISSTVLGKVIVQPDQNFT
Chain of CD16β (FcγRIIIb) (O75015 17-200, one chain of several): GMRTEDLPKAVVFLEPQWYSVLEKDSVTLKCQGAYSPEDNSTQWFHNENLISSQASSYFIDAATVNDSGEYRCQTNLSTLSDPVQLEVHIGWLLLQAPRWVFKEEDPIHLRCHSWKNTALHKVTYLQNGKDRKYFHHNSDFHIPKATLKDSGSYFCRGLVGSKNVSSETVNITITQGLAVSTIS

B1: CLN0018 (ssDNA)
DNA: GGAGGGAAAAGTTATCAGGCATCACGTGGTGGGCAAATAACCGGTTGGGGTGGGTCGAGGGATTAGTTTTGGAGTACTCGCTCC
B1: the binding result in the data set with CD16β (FcγRIIIb) is “no binding”. Also, the affinity in [1], expressed as Kd, was 38 nM.

B2: bsA9 (ssDNA)
DNA: GGAGGGAAAAGTTATCAGGCCACTGCGGGGGTCTATACGTGAGGAAGAAGTGGGCAGGTCGATTAGTTTTGGAGTACTCGCTCCGGAGGGAAAAGTTATCAGGCTGGATGGTAGCTCGGTCGGGGTGGGTGGGTTGGCAAGTCTGATTAGTTTTGGAGTACTCGCTCC
For B2, the binding result in the data set with c-Met Fc fusion [2] is “binds”.

B3: bsA17 (ssDNA)
DNA: CCACTGCGGGGGTCTATACGTGAGGAAGAAGTGGGCAGGTCGGAGGGAAAAGTTATCAGGCTGGATGGTAGCTCGGTCGGGGTGGGTGGGTTGGCAAGTCTGATTAGTTTTGGAGTACTCGCTCC
Turning to B3, the Kd – broadly, a measure of binding affinity in units of concentration – in the data set with c-Met Fc fusion [3] was 0.352 nM; in data set [4], 19 nM.

B4: bsA15 (ssDNA)
DNA: GGAGGGAAAAGTTATCAGGCAGAGGGGAGGGTCGGGTATCGGCGTGTTCGGGGGATCTGCGATTAGTTTTGGAGTACTCGCTCCGGAGGGAAAAGTTATCAGGCTGGATGGTAGCTCGGTCGGGGTGGGTGGGTTGGCAAGTCTGATTAGTTTTGGAGTACTCGCTCC
B4: the Kd in data set [4] came out at 174 nM.

B5: CLN0123 (ssDNA)
DNA: GGAGGGAAAAGTTATCAGGCAGAGGGGAGGGTCGGGTATCGGCGTGTTCGGGGGATCTGCGATTAGTTTTGGAGTACTCGCTCC
As for B5, binding in [5] was put at a Kd of 231 nM. The binding result in the data set with CD16β (FcγRIIIb) is recorded as “no binding”.

B6: bsA22 (ssDNA)
DNA: CCACTGCGGGGGTCTATACGTGAGGAAGAAGTGGAAAAAAAAAAAAAAAGGAGGGAAAAGTTATCAGGCTGGATGGTAGCTCGGTCGGGGTGGGTGGGTTGGCAAGTCTGATTAGTTTTGGAGTACTCGCTCC
Turning to B6, the binding result with c-Met Fc fusion [6] was “binds”.

B7: bsA12 (ssDNA)
DNA: CCACTGCGGGGGTCTATACGTGAGGAAGAAGTGGGCAGGTCGATTAGTTTTGGAGTACTCGCTCCGGAGGGAAAAGTTATCAGGCGAGTGCGTAATGGTACGATTTGGGAAGTGGCTTGGGGTGGGATTAGTTTTGGAGTACTC
In turn, B7 yielded a Kd in the data set with c-Met Fc fusion [7] of 18 nM.

B8: bsA13 (ssDNA)
DNA: GAGTGCGTAATGGTACGATTTGGGAAGTGGCTTGGGGTGGGATTAGTTTTGGAGTACTCGCTCCGGAGGGAAAAGTTATCAGGCCACTGCGGGGGTCTATACGTGAGGAAGAAGTGG
For B8, the Kd with c-Met Fc fusion [7] was determined as 18 nM.

B9: bsA10 (ssDNA)
DNA: GGAGGGAAAAGTTATCAGGCTGGATGGTAGCTCGGTCGGGGTGGGTGGGTTGGCAAGTCTGATTAGTTTTGGAGTACTCGCTCCGGAGGGAAAAGTTATCAGGCCACTGCGGGGGTCTATACGTGAGGAAGAAGTGGGCAGGTCGATTAGTTTTGGAGTACTCGCTCC
As to B9, in the data set with c-Met Fc fusion [2], the binding result is reported as “binds”.

B10: bsA19 (ssDNA)
DNA: CCACTGCGGGGGTCTATACGTGAGGAAGAAGTGGGCAGGTCAAAAAAAAAAAAAAAGGAGGGAAAAGTTATCAGGCTGGATGGTAGCTCGGTCGGGGTGGGTGGGTTGGCAAGTCT
For B10, the binding result with c-Met Fc fusion [8] is given as “binds”.

B11: CLN0020 (ssDNA)
DNA: GGAGGGAAAAGTTATCAGGCCACTGCGGGGGTCTATACGTGAGGAAGAAGTGGGCAGGTCGATTAGTTTTGGAGTACTCGCTCC
As to B11, the Kd in [9] is 45 nM. For the same molecule, the binding result with CD16β (FcγRIIIb) is listed as “no binding”.

B12: bsA16 (ssDNA)
DNA: GAGTGCGTAATGGTACGATTTGGGAAGTGGCTTGGGGTGGGATTAGTTTTGGAGTACTCGCTCCGGAGGGAAAAGTTATCAGGCAGAGGGGAGGGTCGGGTATCGGCGTGTTCGGGGGATCTGCGATTAGTTTTGGAGTACTCGCTCC
For B12, the Kd in data set [4] was found to be 178 nM.

B13: bsA11 (ssDNA)
DNA: CCACTGCGGGGGTCTATACGTGAGGAAGAAGTGGGCAGGTCGATTAGTTTTGGAGTACTCGCTCCGGAGGGAAAAGTTATCAGGCTGGATGGTAGCTCGGTCGGGGTGGGTGGGTTGGCAAGTCTGATTAGTTTTGGAGTACTCGCTCC
In the case of B13, the binding result with c-Met Fc fusion [6] was “binds”.

B14: bsA31 (ssDNA)
DNA: CCACTGCGGGGGTCTATACGTGAGGAAGAAGTGGGCAGGTCAAAAAAAAAAAAAAAGAGTGCGTAATGGTACGATTTGGGAAGTGGCTTGGGGTGGGATTAGTTTTGGAGTACTCGCTCC
As for B14, the Kd stood at 92 nM in the data set with c-Met Fc fusion [7] and 24 nM in data set [4].

B15: bsA20 (ssDNA)
DNA: CCACTGCGGGGGTCTATACGTGAGGAAGAAGTGGGCAGGTCGGAGGGAAAAGTTATCAGGCTGGATGGTAGCTCGGTCGGGGTGGGTGGGTTGGCAAGTCT
B15 showed a Kd with c-Met Fc fusion [7] of 5 nM. On to GAGTGCGTAATGGTACGATTTGGGAAGTGGCTTGGGGTGG (ssDNA) [CLN0004 without flanking sequences], for which the binding result with c-Met Fc fusion [10] is reported as “no binding”.

B16: CLN0004 (ssDNA)
DNA: GGAGGGAAAAGTTATCAGGCGAGTGCGTAATGGTACGATTTGGGAAGTGGCTTGGGGTGGGATTAGTTTTGGAGTACTCGCTCC
With B16, the Kd in the data set with c-Met Fc fusion [11] was 11 nM.

B17: CLN0003 (ssDNA)
DNA: GGAGGGAAAAGTTATCAGGCTGGATGGTAGCTCGGTCGGGGTGGGTGGGTTGGCAAGTCTGATTAGTTTTGGAGTACTCGCTCC
In turn, B17 had a Kd with c-Met Fc fusion [12] of 0.091 nM.

B18: bsA18 (ssDNA)
DNA: CCACTGCGGGGGTCTATACGTGAGGAAGAAGTGGGCAGGTCATCAGGCGAGTGCGTAATGGTACGATTTGGGAAGTGGCTTGGGGTGGGATTAGTTTTGGAGTACTC
Regarding B18, the binding result with c-Met Fc fusion [8] is given as “binds”.

B19: bsA3 (ssDNA)
DNA: CCACTGCGGGGGTCTATACGTGAGGAAGAAGTGGGCAGGTCAAAAAAAAAAAAAAAGAGTGCGTAATGGTACGATTTGGGAAGTGGCTTGGGGTGGG
For the molecule B19, the binding result with c-Met Fc fusion [8] was “binds”.

For GAGTGCGTAATGGTACGATTTGGGAAGTGGCTTGGGGTGGG (ssDNA) [-20CLN0004-23 (41mer, MS2, with G61)], in the data set with c-Met Fc fusion [13], the binding result is given as “binds”. With CCACTGCGGGGGTCTATACGTGAGGAAGAAGTGG (ssDNA) [-19CLN0020-31 (34mer, MS3)], the Kd in [4] was 47 nM. This counts as double-digit nanomolar.

B20: bsA21 (ssDNA)
DNA: CCACTGCGGGGGTCTATACGTGAGGAAGAAGTGGGCAGGTCAAAAAAAAAAAAAAAGGAGGGAAAAGTTATCAGGCTGGATGGTAGCTCGGTCGGGGTGGGTGGGTTGGCAAGTCTGATTAGTTTTGGAGTACTCGCTCC
As for B20, the binding result in the data set with c-Met Fc fusion [2] is reported as “binds”.
